Where a SMILES comes first, the peptide text is derived from it. Bridges are numbered along the chain shown (N, C = ends). Where no end group is shown, it is not given here. [ ]: non-standard residue; d: D form. Orn = NCCC[C@H](N)C(=O)O
T1: adenylyl cyclase, ROS 17/2 cells (Rattus norvegicus, UniProt P25961)
T1 sequence (P25961 27-591): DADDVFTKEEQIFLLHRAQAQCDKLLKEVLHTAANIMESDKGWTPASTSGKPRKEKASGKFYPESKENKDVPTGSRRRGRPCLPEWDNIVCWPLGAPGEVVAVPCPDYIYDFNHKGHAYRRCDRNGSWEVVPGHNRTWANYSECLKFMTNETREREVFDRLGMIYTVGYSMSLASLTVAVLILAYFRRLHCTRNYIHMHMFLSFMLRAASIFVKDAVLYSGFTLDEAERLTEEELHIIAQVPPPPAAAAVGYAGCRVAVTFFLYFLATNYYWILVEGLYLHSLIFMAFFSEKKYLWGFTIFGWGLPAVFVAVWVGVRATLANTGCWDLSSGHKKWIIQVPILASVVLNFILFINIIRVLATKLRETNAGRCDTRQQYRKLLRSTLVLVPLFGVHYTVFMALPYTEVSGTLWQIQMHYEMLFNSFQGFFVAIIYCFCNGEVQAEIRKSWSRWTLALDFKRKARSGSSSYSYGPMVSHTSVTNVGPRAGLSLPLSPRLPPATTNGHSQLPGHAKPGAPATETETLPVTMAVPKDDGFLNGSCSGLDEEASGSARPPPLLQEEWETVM


How the values were obtained:
[1] = molecular target: T1, adenylyl cyclase, ROS 17/2 cells; test: Adenylyl cyclase stimulation, [3H]-cyclic AMP production in ROS 17/2 cells; type: cell-based; conditions: ROS 17/2 cells; concentration for half-maximal increase in AC activity; read-out: Adenylyl Cyclase (EC50)
[2] = molecular target: PTH receptor (rat (ROS 17/2 rat osteosarcoma cell …, UniProt P25961)); test: cell-based or functional assay

| Molecule | EC50 [1] [nM] | Adenylyl Cyclase (EC50) [2] [nM] |
| --- | --- | --- |
| CC[C@H](C)[C@H](NC(=O)[C@H](CCC(=O)O)NC(=O)[C@H](CO)NC(=O)[C@@H](NC(=O)[C@@H](N)CO)C(C)C)C(=O)N[C@@H](CCC(N)=O)C(=O)N[C@@H](CC(C)C)C(=O)N[C@@H](CCSC)C(=O)N[C@@H](Cc1c[nH]cn1)C(=O)N[C@@H](CC(N)=O)C(=O)N[C@@H](CC(C)C)C(=O)NCC(=O)N[C@@H](CCCCN)C(=O)N[C@@H](Cc1c[nH]cn1)C(=O)N[C@@H](CC(C)C)C(=O)N[C@@H](CC(N)=O)C(=O)N[C@@H](CO)C(=O)N[C@@H](CCSC)C(=O)N[C@@H](CCC(=O)O)C(=O)N[C@@H](CCCNC(=N)N)C(=O)N[C@H](C(=O)N[C@H]1CCC(=O)NCCCC[C@@H](C(=O)N[C@@H](C)C(=O)N[C@@H](CC(C)C)C(=O)N[C@@H](CCC(N)=O)C(=O)N[C@@H](CC(=O)O)C(=O)N[C@H](C(N)=O)C(C)C)NC(=O)[C@H](CCCNC(=N)N)NC(=O)[C@H](CC(C)C)NC(=O)[C@H](Cc2c[nH]c3ccccc23)NC1=O)C(C)C [[Ala^27]cyclo(Glu^22—Lys^26)—hPTH—(1-31)-NH2] (H-SVSEIQLMHNLGKHLNSMERVEWLRKALQDV-NH2; lactam 22-26; N-terminus assumed) | 9 |  |
| SVSEIQLMHNLGKHLNSMERVEWLRKLLQDVHNF-OH (lactam 22-26; N-terminus assumed; SMILES CC[C@H](C)[C@H](NC(=O)[C@H](CCC(=O)O)NC(=O)[C@H](CO)NC(=O)[C@@H](NC(=O)[C@@H](N)CO)C(C)C)C(=O)N[C@@H](CCC(N)=O)C(=O)N[C@@H](CC(C)C)C(=O)N[C@@H](CCSC)C(=O)N[C@@H](Cc1c[nH]cn1)C(=O)N[C@@H](CC(N)=O)C(=O)N[C@@H](CC(C)C)C(=O)NCC(=O)N[C@@H](CCCCN)C(=O)N[C@@H](Cc1c[nH]cn1)C(=O)N[C@@H](CC(C)C)C(=O)N[C@@H](CC(N)=O)C(=O)N[C@@H](CO)C(=O)N[C@@H](CCSC)C(=O)N[C@@H](CCC(=O)O)C(=O)N[C@@H](CCCNC(=N)N)C(=O)N[C@H](C(=O)N[C@H]1CCC(=O)NCCCC[C@@H](C(=O)N[C@@H](CC(C)C)C(=O)N[C@@H](CC(C)C)C(=O)N[C@@H](CCC(N)=O)C(=O)N[C@@H](CC(=O)O)C(=O)N[C@H](C(=O)N[C@@H](Cc2c[nH]cn2)C(=O)N[C@@H](CC(N)=O)C(=O)N[C@@H](Cc2ccccc2)C(=O)O)C(C)C)NC(=O)[C@H](CCCNC(=N)N)NC(=O)[C@H](CC(C)C)NC(=O)[C@H](Cc2c[nH]c3ccccc23)NC1=O)C(C)C) [[Leu^27]cyclo(Glu^22-Lys^26)-hPTH-(1-34)-OH] |  | 6 |
| SVSEIQLMHNLGKHLNSMERVEWLRKLLQD-NH2 (lactam 22-26; N-terminus assumed; SMILES CC[C@H](C)[C@H](NC(=O)[C@H](CCC(=O)O)NC(=O)[C@H](CO)NC(=O)[C@@H](NC(=O)[C@@H](N)CO)C(C)C)C(=O)N[C@@H](CCC(N)=O)C(=O)N[C@@H](CC(C)C)C(=O)N[C@@H](CCSC)C(=O)N[C@@H](Cc1c[nH]cn1)C(=O)N[C@@H](CC(N)=O)C(=O)N[C@@H](CC(C)C)C(=O)NCC(=O)N[C@@H](CCCCN)C(=O)N[C@@H](Cc1c[nH]cn1)C(=O)N[C@@H](CC(C)C)C(=O)N[C@@H](CC(N)=O)C(=O)N[C@@H](CO)C(=O)N[C@@H](CCSC)C(=O)N[C@@H](CCC(=O)O)C(=O)N[C@@H](CCCNC(=N)N)C(=O)N[C@H](C(=O)N[C@H]1CCC(=O)NCCCC[C@@H](C(=O)N[C@@H](CC(C)C)C(=O)N[C@@H](CC(C)C)C(=O)N[C@@H](CCC(N)=O)C(=O)N[C@@H](CC(=O)O)C(N)=O)NC(=O)[C@H](CCCNC(=N)N)NC(=O)[C@H](CC(C)C)NC(=O)[C@H](Cc2c[nH]c3ccccc23)NC1=O)C(C)C) [[Leu^27]cyclo(Glu^22-Lys^26)-hPTH-(1-30)-NH2] |  | 20 |
| SVSEIQLMHNLGKHLNSMERVKWLRELLQDV-NH2 (lactam 22-26; N-terminus assumed; SMILES CC[C@H](C)[C@H](NC(=O)[C@H](CCC(=O)O)NC(=O)[C@H](CO)NC(=O)[C@@H](NC(=O)[C@@H](N)CO)C(C)C)C(=O)N[C@@H](CCC(N)=O)C(=O)N[C@@H](CC(C)C)C(=O)N[C@@H](CCSC)C(=O)N[C@@H](Cc1c[nH]cn1)C(=O)N[C@@H](CC(N)=O)C(=O)N[C@@H](CC(C)C)C(=O)NCC(=O)N[C@@H](CCCCN)C(=O)N[C@@H](Cc1c[nH]cn1)C(=O)N[C@@H](CC(C)C)C(=O)N[C@@H](CC(N)=O)C(=O)N[C@@H](CO)C(=O)N[C@@H](CCSC)C(=O)N[C@@H](CCC(=O)O)C(=O)N[C@@H](CCCNC(=N)N)C(=O)N[C@H](C(=O)N[C@H]1CCCCNC(=O)CC[C@@H](C(=O)N[C@@H](CC(C)C)C(=O)N[C@@H](CC(C)C)C(=O)N[C@@H](CCC(N)=O)C(=O)N[C@@H](CC(=O)O)C(=O)N[C@H](C(N)=O)C(C)C)NC(=O)[C@H](CCCNC(=N)N)NC(=O)[C@H](CC(C)C)NC(=O)[C@H](Cc2c[nH]c3ccccc23)NC1=O)C(C)C) [[Leu^27]cyclo(Lys^22-Glu^26)-hPTH-(1-31)-NH2] |  | 4 |
| SVSEIQLMHNLGKHLNSMERVCWLRCLLQDV-NH2 (disulfide 22-26; N-terminus assumed; SMILES CC[C@H](C)[C@H](NC(=O)[C@H](CCC(=O)O)NC(=O)[C@H](CO)NC(=O)[C@@H](NC(=O)[C@@H](N)CO)C(C)C)C(=O)N[C@@H](CCC(N)=O)C(=O)N[C@@H](CC(C)C)C(=O)N[C@@H](CCSC)C(=O)N[C@@H](Cc1c[nH]cn1)C(=O)N[C@@H](CC(N)=O)C(=O)N[C@@H](CC(C)C)C(=O)NCC(=O)N[C@@H](CCCCN)C(=O)N[C@@H](Cc1c[nH]cn1)C(=O)N[C@@H](CC(C)C)C(=O)N[C@@H](CC(N)=O)C(=O)N[C@@H](CO)C(=O)N[C@@H](CCSC)C(=O)N[C@@H](CCC(=O)O)C(=O)N[C@@H](CCCNC(=N)N)C(=O)N[C@H](C(=O)N[C@H]1CSSC[C@@H](C(=O)N[C@@H](CC(C)C)C(=O)N[C@@H](CC(C)C)C(=O)N[C@@H](CCC(N)=O)C(=O)N[C@@H](CC(=O)O)C(=O)N[C@H](C(N)=O)C(C)C)NC(=O)[C@H](CCCNC(=N)N)NC(=O)[C@H](CC(C)C)NC(=O)[C@H](Cc2c[nH]c3ccccc23)NC1=O)C(C)C) [[Cys^22, Cys^26, Leu^27]cyclo(Cys^22-Cys^26)-hPTH-(1-31)-NH2] |  | 16 |
| SVSEIQLMHNLGKHLNSMERVEWLRKLLQDV-OH (lactam 22-26) [[Leu^27]cyclo(Glu^22-Lys^26)-hPTH-(1-31)-OH] |  | 7 |
| SVSEIQLMHNLGKHLNSMERVEWLRCLLQCV-NH2 (disulfide 26-30; N-terminus assumed; SMILES CC[C@H](C)[C@H](NC(=O)[C@H](CCC(=O)O)NC(=O)[C@H](CO)NC(=O)[C@@H](NC(=O)[C@@H](N)CO)C(C)C)C(=O)N[C@@H](CCC(N)=O)C(=O)N[C@@H](CC(C)C)C(=O)N[C@@H](CCSC)C(=O)N[C@@H](Cc1c[nH]cn1)C(=O)N[C@@H](CC(N)=O)C(=O)N[C@@H](CC(C)C)C(=O)NCC(=O)N[C@@H](CCCCN)C(=O)N[C@@H](Cc1c[nH]cn1)C(=O)N[C@@H](CC(C)C)C(=O)N[C@@H](CC(N)=O)C(=O)N[C@@H](CO)C(=O)N[C@@H](CCSC)C(=O)N[C@@H](CCC(=O)O)C(=O)N[C@@H](CCCNC(=N)N)C(=O)N[C@H](C(=O)N[C@@H](CCC(=O)O)C(=O)N[C@@H](Cc1c[nH]c2ccccc12)C(=O)N[C@@H](CC(C)C)C(=O)N[C@@H](CCCNC(=N)N)C(=O)N[C@H]1CSSC[C@@H](C(=O)N[C@H](C(N)=O)C(C)C)NC(=O)[C@H](CCC(N)=O)NC(=O)[C@H](CC(C)C)NC(=O)[C@H](CC(C)C)NC1=O)C(C)C) [[Cys^26, Cys^30, Leu^27]cyclo(Cys^26-Cys^30)-hPTH-(1-31)-NH2] |  | 24 |
| SVSEIQLMHNLGKHLNSMERVDWLR[Orn]LLQDV-NH2 (lactam 22-26; N-terminus assumed; SMILES CC[C@H](C)[C@H](NC(=O)[C@H](CCC(=O)O)NC(=O)[C@H](CO)NC(=O)[C@@H](NC(=O)[C@@H](N)CO)C(C)C)C(=O)N[C@@H](CCC(N)=O)C(=O)N[C@@H](CC(C)C)C(=O)N[C@@H](CCSC)C(=O)N[C@@H](Cc1c[nH]cn1)C(=O)N[C@@H](CC(N)=O)C(=O)N[C@@H](CC(C)C)C(=O)NCC(=O)N[C@@H](CCCCN)C(=O)N[C@@H](Cc1c[nH]cn1)C(=O)N[C@@H](CC(C)C)C(=O)N[C@@H](CC(N)=O)C(=O)N[C@@H](CO)C(=O)N[C@@H](CCSC)C(=O)N[C@@H](CCC(=O)O)C(=O)N[C@@H](CCCNC(=N)N)C(=O)N[C@H](C(=O)N[C@H]1CC(=O)NCCC[C@@H](C(=O)N[C@@H](CC(C)C)C(=O)N[C@@H](CC(C)C)C(=O)N[C@@H](CCC(N)=O)C(=O)N[C@@H](CC(=O)O)C(=O)N[C@H](C(N)=O)C(C)C)NC(=O)[C@H](CCCNC(=N)N)NC(=O)[C@H](CC(C)C)NC(=O)[C@H](Cc2c[nH]c3ccccc23)NC1=O)C(C)C) [[Leu^27]cyclo(Asp^22-Orn^26)-hPTH-(1-31)-NH2] |  | > 200 |

Reference: patent publication US6541450B1, “Parathyroid hormone analogues for the treatment of osteoporosis” (National Research Council of Canada, priority 1994, dated 2003)
